Measurements taken from IntAct's records for PubMed 25766235.

B1: Regulator of G-protein signaling 2 (Homo sapiens), P41220-1 (parent)
chain: MQSAMFLAVQHDCRPMDKSAGSGHKSEEKREKMKRTLLKDWKTRLSYFLQNSSTPGKPKTGKKSKQQAFIKPSPEEAQLWSEAFDELLASKYGLAAFRAFLKSEFCEENIEFWLACEDFKKTKSPQKLSSKARKIYTDFIEKEAPKEINIDFQTKTLIAQNIQEATSGCFTTAQKRVYSLMENNSYPRFLESEFYQDLCKKPQITTEPHAT
partner: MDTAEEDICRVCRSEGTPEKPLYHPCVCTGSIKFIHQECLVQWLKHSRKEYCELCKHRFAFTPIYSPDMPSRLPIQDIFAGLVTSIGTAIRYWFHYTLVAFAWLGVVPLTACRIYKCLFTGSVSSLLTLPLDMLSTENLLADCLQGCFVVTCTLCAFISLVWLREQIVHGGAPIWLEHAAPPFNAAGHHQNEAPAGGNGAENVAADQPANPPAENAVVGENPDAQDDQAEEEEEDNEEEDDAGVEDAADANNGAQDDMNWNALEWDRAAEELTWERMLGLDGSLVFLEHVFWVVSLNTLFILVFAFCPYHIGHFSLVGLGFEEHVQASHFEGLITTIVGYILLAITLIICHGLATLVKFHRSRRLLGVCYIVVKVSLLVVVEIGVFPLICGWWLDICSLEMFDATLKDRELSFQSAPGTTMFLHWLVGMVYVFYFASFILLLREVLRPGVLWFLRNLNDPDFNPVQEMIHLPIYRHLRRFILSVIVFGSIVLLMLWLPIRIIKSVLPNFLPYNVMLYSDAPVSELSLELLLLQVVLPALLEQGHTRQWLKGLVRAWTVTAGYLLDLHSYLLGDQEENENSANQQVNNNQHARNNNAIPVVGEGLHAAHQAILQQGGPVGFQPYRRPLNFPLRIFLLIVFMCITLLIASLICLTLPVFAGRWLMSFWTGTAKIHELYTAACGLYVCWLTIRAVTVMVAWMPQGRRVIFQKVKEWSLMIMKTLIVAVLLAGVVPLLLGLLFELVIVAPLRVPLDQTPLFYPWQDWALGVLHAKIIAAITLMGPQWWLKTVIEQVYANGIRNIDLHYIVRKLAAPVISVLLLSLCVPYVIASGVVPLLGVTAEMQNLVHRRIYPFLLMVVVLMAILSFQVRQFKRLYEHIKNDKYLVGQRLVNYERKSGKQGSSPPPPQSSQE

Variants of: B1
Settings: with marh6_human MARCHF6, O60337

effect of a mutation on the interaction | Variant
disrupting interaction strength | M1P
